Like-named read-outs stand apart in the source and are kept apart here.
Tests used:
[1] = molecular target: human FcγRIIIa (F158 allele) (human) (UniProt P08637)
[2] = molecular target: human FcγRIIIa (V158 allele) (human) (UniProt P08637)
[3] = molecular target: human FcRn (human) (UniProt P55899); assay: MSD [cont'd]
[4] = molecular target: human FcγRIIIa (F158 allele) (human) (UniProt P08637); assay: MSD [cont'd]
[5] = molecular target: human FcγRIIIa (V158 allele) (human) (UniProt P08637); assay: MSD [cont'd]
[6] = molecular target: human FcγRIIIb (human) (UniProt O75015); assay: MSD [cont'd]
[7] = molecular target: human FcγRIIa (H131 allele) (human) (UniProt P12318); assay: MSD [cont'd]
[8] = molecular target: human FcγRIIa (R131 allele) (human) (UniProt P12318); assay: MSD [cont'd]
[9] = molecular target: human FcγRIIb (human) (UniProt P31994); assay: MSD [cont'd]
[10] = molecular target: human FcγRIIb (human) (UniProt P31994); assay: MSD
[11] = molecular target: human C1q (human) (UniProt P02745); assay: MSD [cont'd]
[12] = molecular target: human FcRn (human) (UniProt P55899); assay: MSD [cont'd]; remark: listed apart in the source
[13] = molecular target: human FcγRIIIa (F158 allele) (human) (UniProt P08637); assay: MSD [cont'd]; remark: listed apart in the source
[14] = molecular target: human FcγRIIa (H131 allele) (human) (UniProt P12318); assay: MSD [cont'd]; remark: listed apart in the source
[15] = molecular target: human FcγRIIa (R131 allele) (human) (UniProt P12318); assay: MSD [cont'd]; remark: listed apart in the source
[16] = molecular target: human FcγRIIb (human) (UniProt P31994); assay: MSD [cont'd]; remark: listed apart in the source
[17] = molecular target: human FcγRIIIa (V158 allele) (human) (UniProt P08637); assay: MSD [cont'd]; remark: listed apart in the source
[18] = molecular target: human FcγRIIIa (F158 allele) (human) (UniProt P08637); remark: listed apart in the source
[19] = molecular target: human FcγRIIIa (V158 allele) (human) (UniProt P08637); remark: listed apart in the source
[20] = molecular target: human FcγRIIa (H131 allele) (human) (UniProt P12318)
[21] = molecular target: human FcγRIIb (human) (UniProt P31994)
[22] = molecular target: human FcγRIIIa (F158 allele) (human) (UniProt P08637); assay: MSD
[23] = molecular target: human FcγRIIIa (V158 allele) (human) (UniProt P08637); assay: MSD
[24] = molecular target: human FcγRIIIb (human) (UniProt O75015); assay: MSD
[25] = molecular target: human FcγRIIa (H131 allele) (human) (UniProt P12318); assay: MSD
[26] = molecular target: human FcγRIIa (R131 allele) (human) (UniProt P12318); assay: MSD
[27] = molecular target: human C1q (human) (UniProt P02745); assay: MSD [cont'd]; remark: listed apart in the source
[28] = molecular target: human FcRn (human) (UniProt P55899); assay: MSD, pH 6 [cont'd]
[29] = molecular target: human FcγRIIb (human) (UniProt P31994); assay: Table B summary, vs fucosylated wild-type human IgG1

Sequence of human FcγRIIIa (F158 allele) (human) (P08637 17-208 limits assumed): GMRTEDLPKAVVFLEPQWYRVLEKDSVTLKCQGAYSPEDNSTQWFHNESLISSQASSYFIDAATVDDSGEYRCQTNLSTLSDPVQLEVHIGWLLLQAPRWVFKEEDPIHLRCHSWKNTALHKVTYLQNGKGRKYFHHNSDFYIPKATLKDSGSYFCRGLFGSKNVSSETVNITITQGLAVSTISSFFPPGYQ
Sequence of human FcγRIIIb (human) (O75015 17-200 limits assumed): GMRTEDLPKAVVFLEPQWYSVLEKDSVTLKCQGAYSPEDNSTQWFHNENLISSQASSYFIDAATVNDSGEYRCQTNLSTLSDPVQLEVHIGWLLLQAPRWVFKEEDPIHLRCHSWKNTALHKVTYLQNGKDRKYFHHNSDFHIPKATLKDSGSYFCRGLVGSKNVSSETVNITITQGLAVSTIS
Sequence of human FcγRIIb (human) (P31994 43-217 limits assumed): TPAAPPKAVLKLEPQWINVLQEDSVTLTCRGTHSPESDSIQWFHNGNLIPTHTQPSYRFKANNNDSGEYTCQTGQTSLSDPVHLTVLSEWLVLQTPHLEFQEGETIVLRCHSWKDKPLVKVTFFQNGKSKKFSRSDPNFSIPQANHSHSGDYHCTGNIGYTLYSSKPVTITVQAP
Sequence of human FcγRIIa (H131 allele) (human) (P12318 34-218 limits assumed): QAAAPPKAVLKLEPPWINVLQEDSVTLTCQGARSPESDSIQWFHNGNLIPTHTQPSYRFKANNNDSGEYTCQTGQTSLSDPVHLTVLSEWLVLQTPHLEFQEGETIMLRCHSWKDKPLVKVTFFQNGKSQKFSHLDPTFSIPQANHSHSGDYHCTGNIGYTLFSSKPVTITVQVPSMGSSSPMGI
Sequence of human C1q (human) (P02745 23-245 limits assumed, chain 1 of 3): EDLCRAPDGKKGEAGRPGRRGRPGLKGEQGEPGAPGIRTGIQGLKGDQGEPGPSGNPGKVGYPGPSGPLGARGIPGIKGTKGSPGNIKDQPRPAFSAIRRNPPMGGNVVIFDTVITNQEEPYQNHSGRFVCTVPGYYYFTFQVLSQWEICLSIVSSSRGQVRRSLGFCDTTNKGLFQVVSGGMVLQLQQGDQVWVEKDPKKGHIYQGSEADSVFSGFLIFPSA
Sequence of human C1q (human) (P02746 28-253 limits assumed, chain 2 of 3, further chain): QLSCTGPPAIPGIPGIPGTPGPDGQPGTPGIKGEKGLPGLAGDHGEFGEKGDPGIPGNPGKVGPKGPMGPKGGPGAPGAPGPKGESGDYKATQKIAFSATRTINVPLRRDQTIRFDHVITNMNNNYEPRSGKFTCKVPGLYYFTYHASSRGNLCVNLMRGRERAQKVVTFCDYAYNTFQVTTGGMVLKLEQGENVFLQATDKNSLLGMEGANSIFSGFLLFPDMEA
Sequence of human C1q (human) (P02747 29-245 limits assumed, chain 3 of 3, further chain): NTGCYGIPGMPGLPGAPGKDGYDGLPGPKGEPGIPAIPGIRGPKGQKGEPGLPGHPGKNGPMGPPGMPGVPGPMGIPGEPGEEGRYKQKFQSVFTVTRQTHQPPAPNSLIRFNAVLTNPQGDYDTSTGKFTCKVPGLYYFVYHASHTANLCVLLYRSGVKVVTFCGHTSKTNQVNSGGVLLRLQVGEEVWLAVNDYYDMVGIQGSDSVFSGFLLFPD
Sequence of human FcRn (human) (P55899 24-297 limits assumed, chain 1 of 2): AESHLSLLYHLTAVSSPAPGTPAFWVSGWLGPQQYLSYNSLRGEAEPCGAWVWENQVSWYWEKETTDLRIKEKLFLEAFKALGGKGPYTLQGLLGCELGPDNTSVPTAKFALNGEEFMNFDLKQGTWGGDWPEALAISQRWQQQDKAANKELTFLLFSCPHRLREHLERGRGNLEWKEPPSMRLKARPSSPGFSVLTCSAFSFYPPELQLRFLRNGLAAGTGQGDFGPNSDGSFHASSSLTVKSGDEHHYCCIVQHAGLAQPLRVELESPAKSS
Sequence of human FcRn (human) (chain, as listed by the source limits assumed, chain 2 of 2): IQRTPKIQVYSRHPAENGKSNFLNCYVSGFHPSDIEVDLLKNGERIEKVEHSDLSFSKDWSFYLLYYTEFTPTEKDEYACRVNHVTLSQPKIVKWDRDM
Sequence of human FcγRIIIa (V158 allele) (human) (P08637 17-208 F176V limits assumed): as the sequence (P08637 17-208 limits assumed) above, with F160V counted along it
Sequence of human FcγRIIa (R131 allele) (human) (P12318 34-218 H167R limits assumed): as the sequence (P12318 34-218 limits assumed) above, with H134R counted along it

Substance | FcγR reporter signaling, fold to wt-fucose [cont'd] [1] [fold] | FcγR reporter signaling, fold to wt-fucose [cont'd] [2] [fold] | fold to wt-fucose [3] [fold] | fold to wt-fucose [4] [fold] | fold to wt-fucose [5] [fold] | fold to wt-fucose [6] [fold] | fold to wt-fucose [7] [fold] | fold to wt-fucose [8] [fold] | fold to wt-fucose [9] [fold] | fold-change vs wt [11] [fold] | fold-change vs wt [12] [fold] | fold-change vs wt [13] [fold] | fold-change vs wt [14] [fold] | fold-change vs wt [15] [fold] | fold-change vs wt [16] [fold] | fold-change vs wt [17] [fold] | fold-change to WT Fc [25] [fold] | fold-change to WT Fc [26] [fold] | fold-change to WT Fc [10] [fold] | fold-change to WT Fc [27] [fold] | other results
G236A_S239D_A330L_I332E-afuc (antibody) | 11.5 | 5.16 | 0.96 | 730 | 75.6 | 94.3 | 3.58 | 7.58 | 1.21 | – | – | – | – | – | – | – | – | – | – | – | –
G236R_L328R-afuc (antibody) | 0.05 | 0.2 | 1.09 | 0.33 | 0.07 | 0.6 | 0.16 | 0.24 | 0.17 | – | – | – | – | – | – | – | – | – | – | – | fold-change (reference not given) [10]: 0.2 fold
IgG1 antibody with Fc variant E272R_L309T_S219Y_S267E | – | – | – | – | – | – | – | – | – | 2.53 | 0.98 | 0.37 | 0.33 | 10.7 | 4.77 | – | – | – | – | – | –
IgG1 antibody with Fc variant E345K_G236S_L235Y_S267E | – | – | – | – | – | – | – | – | – | 2.35 | 0.9 | 0.29 | 0.53 | 9.22 | 1.71 | 0.05 | – | – | – | – | –
IgG1 antibody with Fc variant F243L_G446E_P396L_S267E | – | – | – | – | – | – | – | – | – | 4.17 | 1.05 | 0.63 | 0.77 | 31.1 | 15.7 | 0.24 | – | – | – | – | –
IgG1 antibody with Fc variant G236A_R292P | – | – | – | – | – | – | – | – | – | – | – | – | – | – | – | – | 5.65 | 1.04 | 0.446 | 0.125 | FcγR reporter signaling, fold-change vs wt [cont'd] [18]: 0.29 fold; FcγR reporter signaling, fold-change vs wt [cont'd] [19]: 0.54 fold; FcγR reporter signaling, fold-change vs wt [cont'd] [20]: 1.47 fold; FcγR reporter signaling, fold-change vs wt [cont'd] [21]: 0.15 fold; fold-change vs wt [22]: 0.6 fold; fold-change vs wt [23]: 0.41 fold; fold-change vs wt [24]: 0.95 fold; fold-change vs wt [25]: 5.65 fold; fold-change vs wt [26]: 1.04 fold; fold-change vs wt [10]: 0.45 fold; fold-change vs wt [27]: 0.13 fold; fold-change vs wt [3]: 0.81 fold; fold-change to WT Fc [4]: 0.603 fold; fold-change to WT Fc [5]: 0.411 fold; fold-change to WT Fc [28]: 0.809 fold; fold-change in binding vs fucosylated wild-type human IgG1 [29]: 0.5 fold
IgG1 antibody with Fc variant G236S_G420V_G446E_L309T | – | – | – | – | – | – | – | – | – | – | – | – | – | – | – | – | – | – | – | – | FcγR reporter signaling, fold-change vs wt [cont'd] [18]: 0.03 fold; FcγR reporter signaling, fold-change vs wt [cont'd] [19]: 0.06 fold; FcγR reporter signaling, fold-change vs wt [cont'd] [20]: 2.56 fold; FcγR reporter signaling, fold-change vs wt [cont'd] [21]: 0.22 fold; fold-change vs wt [22]: 0.32 fold; fold-change vs wt [23]: 0.09 fold; fold-change vs wt [24]: 0.56 fold; fold-change vs wt [25]: 4.85 fold; fold-change vs wt [26]: 1.47 fold; fold-change vs wt [10]: 0.39 fold; fold-change vs wt [27]: 0.21 fold; fold-change vs wt [3]: 0.77 fold; fold-change in binding vs fucosylated wild-type human IgG1 [29]: 0.5 fold
IgG1 antibody with Fc variant G236W | – | – | – | – | – | – | – | – | – | 3.63 | 1.09 | 0.54 | 1.06 | 0.47 | 0.65 | 0.12 | 1.06 | 0.469 | 0.652 | 3.66 | fold-change to WT Fc [4]: 0.541 fold; fold-change to WT Fc [5]: 0.117 fold; fold-change to WT Fc [28]: 1.09 fold
IgG1 antibody with Fc variant G236Y | – | – | – | – | – | – | – | – | – | 3.22 | 1.05 | 0.56 | 0.74 | 0.42 | 0.55 | 0.12 | 0.735 | 0.418 | 0.547 | 3.25 | fold-change to WT Fc [4]: 0.559 fold; fold-change to WT Fc [5]: 0.116 fold; fold-change to WT Fc [28]: 1.05 fold
IgG1 antibody with Fc variant Y300L | – | – | – | – | – | – | – | – | – | 2.14 | 1.06 | 1.24 | – | – | – | 1.62 | 1.86 | 0.822 | 1.18 | 2.16 | fold-change to WT Fc [4]: 1.25 fold; fold-change to WT Fc [5]: 1.62 fold; fold-change vs wt [7]: 1.86 fold; fold-change vs wt [8]: 0.82 fold; fold-change vs wt [9]: 1.18 fold; fold-change to WT Fc [28]: 1.06 fold
R292P_Y300L-afuc (antibody) | 10.6 | 4.52 | 0.82 | 26.5 | 16.1 | 4.53 | 1.27 | 0.72 | 1.05 | – | – | – | – | – | – | – | – | – | – | – | –
S239D_H268E_G236A-afuc (antibody) | 11.6 | 5.65 | 1.01 | 425 | 84.9 | 38.1 | 13.6 | 62 | 6.35 | – | – | – | – | – | – | – | – | – | – | – | –

— patent US20260184814A1, “BROADLY NE[…] INFLUENZA NEURAMINIDASE” (priority 2022, published 2026)
